The values below come from publication PMC9301641.

The Kd is the equilibrium constant for the complex coming apart. A lower Kd goes with tighter binding.

Assay [1] deals with Snof10, yeast surface-displayed. Put plainly: flow cytometry on cells. For orientation: In flow cytometry, cells or beads pass a laser one at a time.
In assay [2] the target is Snof3, yeast surface-displayed. Kind of assay: flow cytometry on cells.
Assay [3] has as its target SmBiT-Snof10. Put plainly: split reporter.
In assay [4] the target is Snof3-LgBiT. Put plainly: split reporter.

B1: Sso6904 (natural protein)
chain: MMAMSILEDPEFVKLRQFKGKVNFNLVMQILDEIELDLRGSDNIKTSIIYVYSSHLDEIRKNKEFYDMIAEILQRYYKKIGIENVNQLILTTIK
As to B1, the Kd in assay [1] stood at 0.028 µM; in assay [2], 0.011 µM; in assay [3], 0.02 µM; in assay [4] it was 0.02 µM.
